± gives the uncertainty stated by the source.
Assay: amyloid nucleation score (Sup35N fusion, yeast selection) (log enrichment); library NNK2; higher = more nucleation; inactive = no reads after selection
Summary of the method: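 After 24 hours of induction with 100 μM copper sulfate, psi-negative yeast expressing peptides of 20 random codons fused to Sup35N were grown for 7 days at 30°C on medium lacking adenine and uracil. Input and output plasmid inserts were sequenced with Illumina, and sequences with under 100 input reads were discarded. Scores for nucleation are the DiMSum log enrichment of output over input reads, centred on the mode score of non-aggregating sequences.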

Row | Substance | amyloid nucleation score
1 | WWCMLFNGEGGDCDILDFSS | -0.385 ± 0.49
2 | KLPFICINRGWWLVGRINSS | 3.07 ± 0.18
3 | LNVGPQGYMCGSPLYDHCG | 2.73 ± 0.076
4 | LDYDKNKFWAQHLYSKQSSL | 0.805 ± 0.23
5 | HRNQTASKGCSCLLDCHDTG | 0.356 ± 0.23
6 | RYHWEVLK | 0.082 ± 1
7 | GCMTMTWMTNYLSFHNDTFT | 4.26 ± 0.065
8 | NTHFFVMRVEFGPWYTSSCS | 2.42 ± 0.21
9 | YHSFLWKINSCAVMMEDSTG | 0.811 ± 0.67
10 | FIHTRRCKYGWTSRFKTLTW | 0.105 ± 1.1
11 | VGDSMMWVTDRAKGVPYGGD | 0.285 ± 0.65
12 | SFGCINTCFCMCSCFVREMD | 1.5 ± 0.14
13 | HRDHGTISLHRKCSYVALAS | 1.14 ± 0.29
14 | CQIVGRHIGVRMCDDRVYRA | 0.762 ± 0.6
15 | RFGIGSLRSTSHVAGLMVMS | 0.733 ± 0.44
16 | DDSFML | -0.134 ± 1.1
17 | KYVFGKTYPRY | inactive
18 | SLTSSSICHRPHTCTVCV | -0.364 ± 0.33
19 | ATVSDYKVHGSDLFSFTVND | 8.299 ± 0.058
20 | SFFMEDQCTRPLVWEVRVFN | 0.049 ± 1.1
21 | TSLMRYIPMGHLKAWIFLSI | 0.049 ± 1.1
22 | AVGNNN | -1.11 ± 0.74
23 | RYDSMIHRSVGWPGSYNKGH | -0.287 ± 0.31
24 | SRFCSIIITMNVNHLPV | 5.79 ± 0.068
25 | NADQLLIGELQLTLGLWPIR | 1.14 ± 0.16

Row | Substance | amyloid nucleation score
26 | MDFSSLWGLHFVLCCVSWGR | 0.256 ± 1
27 | DVLGLSGACFGITERVDRLA | 2.32 ± 0.1
28 | HLFVASYDKRVECFLSVKGE | inactive
29 | WSVWVRDSGSRMS | 1.22 ± 0.13
30 | FRYRKSLDCNAMVPERQTGT | 1.11 ± 0.53
31 | SLTGSQSGQGDLCVLVRYNH | 3.84 ± 0.12
32 | TMMSLSGIVL | -0.376 ± 0.48
33 | RNSCFVLSFMGWFVHYHFRF | -0.317 ± 0.79
34 | NMFVSSRSM | 0.585 ± 0.8
35 | LQCYPWIYGGSGHPYRFWNL | -0.331 ± 0.8
36 | MLWQFKWESGYVTLRARPN | inactive
37 | NGGPRAYLDIYDLSGVSDRR | 0.487 ± 0.18
38 | ICCRRSMPMIINDLNFMSNS | 7.928 ± 0.035
39 | ICWHV | -0.277 ± 1.1
40 | SGFKLLGFTNYVHAVSMGSQ | 3.25 ± 0.15
41 | LATNNVS | 0.979 ± 0.67
42 | RAWCYTGMRGDMESW | -0.447 ± 0.41
43 | EDAFMSFCMVRLWDHF | -0.089 ± 1.1
44 | LKCHVLGVHCAL | 0.205 ± 0.19
45 | FGMILPFGDIFTLASDFRVR | -0.833 ± 1.1
46 | LAKFYLWCSGYMHSS | 0.214 ± 0.65
47 | IYVFGIGTYMVTQFLCSTTI | 6.909 ± 0.031
48 | LYDFCVSYVSQNGLRLFVRT | -0.727 ± 0.45
49 | RFIMSRYALEGAESTLMKHN | 3.53 ± 0.1
50 | SCSISGMVVWDRMVKLSLSL | -0.317 ± 0.48

Row | Substance | amyloid nucleation score
51 | NSGSGAAFGVSLHVVNCARS | 0.045 ± 0.79
52 | RFFCLWFSWKNLGFNVKRAV | 5.02 ± 0.082
53 | SFVCWITVCNFRVSQ | 3.21 ± 0.12
54 | CSGSLHERQYVRYDEVRRVG | -0.031 ± 0.55
55 | LRQGPTHFLYLGCYFVDAMR | 7.119 ± 0.066
56 | FFFVFVGDVR | 2.08 ± 0.15
57 | CFAGLFLLSSEFFYRLTSRR | 1.58 ± 0.12
58 | GISCYLRVHTSANDESCSER | 0.426 ± 0.8
59 | RSPRHQNQDPRLKGRNARSP | 2.49 ± 0.086
60 | NISHVVNLHAWLYRLL | 3.39 ± 0.13
61 | RGMWRCHNG | 1.49 ± 0.37
62 | VTVCC | 1.69 ± 0.2
63 | PFGMCSFTVVIYYGCFEDAH | 0.519 ± 0.3
64 | WTCVGSYWSLHFAFSR | 4.25 ± 0.12
65 | GIYNVLS | -0.108 ± 1.1
66 | FGKYDGTYRSPVGYGFMWS | 0.397 ± 0.41
67 | LCFATYVGTGCVLGLPGYHK | 4.59 ± 0.066
68 | NYRLQIINGRRSTSVRVQGA | 0.606 ± 0.36
69 | ISPISLTISLLIGYTSGCLR | 3.15 ± 0.066
70 | VMPIFNYWV | 0.121 ± 0.3
71 | CIGSRRGQSTSSVYRWSHYL | 0.192 ± 0.46
72 | YFLVKFSSNTFIVWTHRYFQ | 0.057 ± 1.1
73 | TRDSLGRKGYRSAVLTPSMP | 1.29 ± 0.14
74 | LSESRRQVASASDLMKRRIP | 1.24 ± 0.66
75 | TRYHLHSALT | -0.12 ± 1

Row | Substance | amyloid nucleation score
76 | YKTFFLVASAKVNEAPGQRG | inactive
77 | GSGSVAEIMRNVFLVCSW | -0.115 ± 0.34
78 | LKNNNQETGIEFYIFREHRD | 4.22 ± 0.047
79 | IATYIR | -0.179 ± 0.63
80 | LTCLFPFWRWCIPAAIEFRR | 0.901 ± 0.28
81 | YLVYKMNNGCLCNIFAPVTE | 8.303 ± 0.064
82 | GNWMRYIFSKWARLWGWKTY | inactive
83 | YNQRTFVSVSYEWTSGPWVC | 0.334 ± 0.33
84 | GVVFFFGKDNGRDIMSGTRY | inactive
85 | WVAKYLFSLEDHVSVRIVDI | 0.227 ± 0.56
86 | APLNLSFIHPTFIWLYCLLG | 4.27 ± 0.05
87 | FVRVCLSVIRYFTVTPGFKD | inactive
88 | RDAGSGREL | inactive
89 | TLRTFRRAQGTRYVYLK | 0.121 ± 0.23
90 | QLESRRDDHRVHESADGSA | 0.466 ± 0.33
91 | SVKQGN | 0.132 ± 0.22
92 | DAWKLNTDIYSANRYFIDLV | -0.651 ± 0.27
93 | SIFYLEGDHDLTTCTDLNTF | 3.13 ± 0.094
94 | MGTPLNFGCQY | -1.26 ± 0.48
95 | TNDVTSWKLTHCYLWPKADF | -0.328 ± 0.32
96 | LSTCCVKVVVCRDFIIVDKF | 6.57 ± 0.039
97 | ADCLKSCLAMSGF | -0.14 ± 0.8
98 | CPISCTYMEYTSWSSSRC | 1.18 ± 0.44
99 | SWVRVDHLNDMYRFELK | 0.286 ± 0.46
100 | LGVMRIVHVGLWSAR | -0.249 ± 0.55

Row | Substance | amyloid nucleation score
101 | PSCDVFVKIRLHFAFVKNFI | inactive
102 | SDVRVLNDQKSGVFC | 0.706 ± 0.15
103 | VGRVNIVSDLMVPNSHYICS | -0.056 ± 0.76
104 | DLIGPYRVLRFCRWV | 2.8 ± 0.099
105 | VDRNVTSRSQVTSSFSWDIV | inactive
106 | LAALR | 0.159 ± 0.3
107 | WGAEILAHVGPSHEYSR | -0.175 ± 0.49
108 | HTGLFWS | inactive
109 | LKCPGLTREGLSPYKSSLPN | -0.202 ± 1
110 | CMAIDLPVHYS | 0.005 ± 0.55
111 | IYMRRCSVLGSHCH | 0.081 ± 1.1
112 | TMSFFLGSLEVL | -1.09 ± 0.48
113 | LPFMECC | -0.696 ± 1
114 | CPHGCIQTARYQQ | 1.19 ± 0.42
115 | YVFSIYGPFLLVEGLSTPFR | 4.49 ± 0.095
116 | FSIDVSSYRMWLPVSDLYFI | -0.545 ± 0.76
117 | GEINENGKLCGGRAQGTGTY | -0.392 ± 0.63
118 | NLSNELSCI | inactive
119 | GENVVEACLWGQSQASWFIR | -0.009 ± 0.55
120 | NMLYHYIDRSCRGAMDHHGR | inactive
121 | DFDSQRSLKSSDRRFVTFTY | -0.869 ± 0.55
122 | VMFVTSV | 0.201 ± 0.29
123 | VAKLLMAGVVKPCRGGRCVG | 0.936 ± 0.16
124 | VVGTPCL | 0.542 ± 0.41
125 | SMSLRTCSLSFVSWMKFKDG | 0.095 ± 0.45

Row | Substance | amyloid nucleation score
126 | MLQYWMPVLGWWAFMRNLAF | 1.71 ± 0.47
127 | RIGLMNL | 3.38 ± 0.11
128 | DCTLAVLFYKTEFITPRAQW | 2.28 ± 0.14
129 | SGRLL | 1 ± 0.13
130 | LNMVLDF | inactive
131 | TLGTFVWVFRSFTCLLLEEQ | 3.29 ± 0.057
132 | TVCWEWSSLWDTPSLKSAD | 0.536 ± 0.37
133 | DSSIDRWF | 1.15 ± 0.22
134 | YKSSGLLSYTSIGNVDIYFV | 6.26 ± 0.079
135 | SIRQTCKFGYIMAWL | 7.064 ± 0.057
136 | GLAEYRS | -0.488 ± 0.64
137 | MRRRMQSWANRSLSTGWGMF | -0.091 ± 0.38
138 | CSMMNLKSFLADCSIPAFTG | -0.962 ± 0.64
139 | VVWSN | 0.845 ± 0.29
140 | FEIGSV | inactive
141 | RINVPDVRMDPNYQIHF | -1.02 ± 0.36
142 | SIAHGQTSQNSTEWARVDG | 0.387 ± 0.29
143 | FRGIPCLCHVIM | 5.81 ± 0.081
144 | AAACAGIKFLLTFTFGFRTW | inactive
145 | LNDHNFLCPLTYKVRRLYNN | -1.53 ± 0.53
146 | ELYWGS | 0.509 ± 0.57
147 | LLFMSSNIFDMCREFDRC | inactive
148 | SFVTYSNSLFFTISSDSK | 6.826 ± 0.054
149 | MLLSCYFVVNE | 6.37 ± 0.072
150 | GGMVVPGKYRDRGY | -0.227 ± 0.26

Row | Substance | amyloid nucleation score
151 | NLSYDHPACCKWNRCYVKHR | 1.81 ± 0.14
152 | TLYWNKSQRYGLLWFKFVSL | -0.277 ± 1
153 | ISFMQGDCRWHQVNSLQRIM | -0.94 ± 0.54
154 | VGWHPPVLTEYTMDQTAYTT | 1.39 ± 0.29
155 | ICETGMGSKVGHEPVTAQ | 0.598 ± 0.57
156 | MTRVTYMYVFIYACESRYTH | -0.116 ± 0.22
157 | SVRMVFIGNLSRGNWSALWS | 7.627 ± 0.037
158 | LDKKVSVSAVRLTRRDASEE | 2.25 ± 0.098
159 | CSYPNTLNCELMGILCYVGN | 6.47 ± 0.024
160 | DMHCFSEGRHGGLTCAGCLR | 1.1 ± 0.19
161 | TVSHDTGFGRNFFHVLLLS | -0.012 ± 1.1
162 | WLYDPSIMWNIGWVSNMMHQ | -0.454 ± 0.24
163 | NSVRNTYWKAPGNLTEGVSG | -0.054 ± 0.4
164 | IQRPADRIQHMTMWHTQDLV | 1.14 ± 0.37
165 | RNFDRGWSHR | 0.319 ± 0.4
166 | RPISLCALYWLNLRANIHCR | 0.144 ± 0.56
167 | RGQTMNHALRAHW | 0.639 ± 0.42
168 | LFVCMTLGYSLGKSHFDNGS | 4.1 ± 0.044
169 | IRFANVPSRNKFH | 0.486 ± 0.36
170 | YCLSIWIDLSFIFVIRVDSG | inactive
171 | QFNKIDWMHKMFTSSRVNMS | -0.166 ± 0.31

Reference: the supplement of paper PMC12042874
